The target in the series is mLANA DBD (Murine gammaherpesvirus 68 (MHV-68), UniProt O41974 124-314). Nature of the series: SAXS; linear octamer model, no DNA bending. As to conditions: protein: recombinant; tags: GST-6xHis tag (pET49b) removed by 3C protease; chain copies: 2.

B1: mLBS1-2 (dsDNA)
DNA 1: GCCATGCGCCCGCGCCTGGGGCGCCACGCGGCGCGCCCTGGAGACCCGGG
DNA 2: CCCGGGTCTCCAGGGCGCGCCGCGTGGCGCCCCAGGCGCGGGCGCATGGC
Consider B1, for which the binding result was “binds”.

For the origin of these results see paper PMC4787769.
